Measured values: PMC5973702
pKd: −log10 of the molar value.

Target: human voltage-gated K+ channel Kv1.3 with C-terminal FLAG/10Xhis tag, expressed in Tetrahymena thermophila (human) (UniProt P22001)
Experiment: fluorescence polarisation

Sequence of UniProt P22001 (P22001 whole entry): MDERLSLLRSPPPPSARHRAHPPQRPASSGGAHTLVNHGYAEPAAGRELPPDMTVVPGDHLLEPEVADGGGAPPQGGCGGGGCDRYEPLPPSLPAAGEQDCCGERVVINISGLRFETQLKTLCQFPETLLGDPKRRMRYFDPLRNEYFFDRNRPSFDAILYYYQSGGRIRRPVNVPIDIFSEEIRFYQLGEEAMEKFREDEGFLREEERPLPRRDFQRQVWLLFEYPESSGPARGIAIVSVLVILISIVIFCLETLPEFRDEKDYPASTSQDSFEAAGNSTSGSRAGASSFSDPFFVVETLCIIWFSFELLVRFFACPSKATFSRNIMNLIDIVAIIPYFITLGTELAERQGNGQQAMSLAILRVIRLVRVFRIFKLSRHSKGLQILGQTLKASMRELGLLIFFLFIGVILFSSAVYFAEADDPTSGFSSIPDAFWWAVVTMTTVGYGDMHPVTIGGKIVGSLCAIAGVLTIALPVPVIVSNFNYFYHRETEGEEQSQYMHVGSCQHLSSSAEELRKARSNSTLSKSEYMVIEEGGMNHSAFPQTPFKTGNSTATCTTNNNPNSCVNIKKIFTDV

FAM-ShK (Fluorescein 6-carbonyl-labelled Stichodactyla toxin) (peptide)
pKd: 7.94
